Article PMC4830470 (Nature, 2015)

Target: the molecule itself
Experiment: SEC

B1: human class A J-protein DNAJA2 (JA2), wild type (natural protein)
chain: not shown
stoichiometry N: 2
